# Assay results as given in patent US10590192B2, “Midkine antibody” (Cellmid Limited, priority 2014, dated 2020).
# Where a chain is given by its changes, count along the chain named.
# T1: murine MK (muMK) (Mus musculus, UniProt P12025)
# T1 sequence (P12025 23-140): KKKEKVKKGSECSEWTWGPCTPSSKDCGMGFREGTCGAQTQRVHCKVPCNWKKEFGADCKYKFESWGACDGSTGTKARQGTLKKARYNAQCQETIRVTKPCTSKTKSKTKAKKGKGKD
# T2: recombinant human MK (huMK) (Homo sapiens, UniProt P21741)
# T2 sequence (P21741 21-143): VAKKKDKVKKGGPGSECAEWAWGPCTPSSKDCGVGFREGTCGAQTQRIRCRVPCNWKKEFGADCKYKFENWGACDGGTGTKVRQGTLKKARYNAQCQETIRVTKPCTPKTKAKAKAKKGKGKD
# B1: IP14-H4L1: humanised IP14 antibody: VH SEQ ID NO: 5, VL SEQ ID NO: 10 (antibody, V domains shown)
# VH: QVQLVQSGAEVKKPGASVKVSCKASGYTFTSYYMHWVRQAPGQGLEWMGIIHPSGGSTSYAQKFQGRVTMTRDTSTSTVYMELSSLRSEDTAVYYCARWSAKRGDFWGQGTLVTVSS
# VL: EIVLTQSPATLSLSPGERANLSCRASESISNNLHWYQQKPHQAPRLLIKYASQSISGIPARFSGSGPGTDFNLTISSVEPEDFAVYYCQQSNSWPLTFGGGTKLEIKR
# modifications: Variable region heavy chain humanised variant 4 (VH4); Variable region light chain humanised variant 1 (VL1)
# B2: IP14-H4L2: humanised IP14 antibody: VH SEQ ID NO: 5, VL SEQ ID NO: 11 (antibody, V domains shown)
# VH: B1 VH
# VL: B1 VL with N20T, H41G, N72T
# modifications: Variable region heavy chain humanised variant 4 (VH4); Variable region light chain humanised variant 2 (VL2)
# B3: IP14-H4L3: humanised IP14 antibody: VH SEQ ID NO: 5, VL SEQ ID NO: 12 (antibody, V domains shown)
# VH: B1 VH
# VL: B1 VL with E1D, N20T, H41G, K49Y, N72T, V78L
# modifications: Variable region heavy chain humanised variant 4 (VH4); Variable region light chain humanised variant 3 (VL3)
# B4: IP14-H4L4: humanised IP14 antibody: VH SEQ ID NO: 5, VL SEQ ID NO: 13 (antibody, V domains shown)
# VH: B1 VH
# VL: EIVLTQSPDFQSVTPKEKVNITCRASESISNNLHWYQQKPHQSPKLLIYYASQSISGVPSRFSGSGSGTDFNLTINSVEAEDAATYYCQQSNSWPLTFGGGTKLEIKR
# modifications: Variable region heavy chain humanised variant 4 (VH4); Variable region light chain humanised variant 4 (VL4)
# B5: IP14-H5L5: humanised IP14 antibody: VH SEQ ID NO: 6, VL SEQ ID NO: 14 (antibody, V domains shown)
# VH: QVQLVQSGGGLVQPGGSLRLSCAASGQSFSSYWMNWVRQAPGQGLEWIGMIHPSDSETILNQKFKDKATLTVDISKNTAYLQMNSLRAEDTAVYYCSSWSAKRGDFWGQGTLVTVSS
# VL: EIVLTQSPATLSLSPGERATLSCRASQGVSSNLAWYQQKPGQAPRLLIYDASNRATGIPARFSGSGPGTDFTLTISSLEPEDFAVYYCQQSNSWPLTFGQGTKVEIKR
# modifications: Variable region heavy chain humanised variant 5 (VH5); Variable region light chain humanised variant 5 (VL5)
# B6: IP14-H6L5: humanised IP14 antibody: VH SEQ ID NO: 7, VL SEQ ID NO: 14 (antibody, V domains shown)
# VH: B5 VH with Q13K, G16H, Q43K, T71S, S75A, T78S
# VL: B5 VL
# modifications: Variable region heavy chain humanised variant 6 (VH6); Variable region light chain humanised variant 5 (VL5)
# B7: IP14-H1L5: humanised IP14 antibody: VH SEQ ID NO: 2, VL SEQ ID NO: 14 (antibody, V domains shown)
# VH: QVQLVQSGAEVKKPGHSVKVSCKASGQSFSSYWMNWVRQAPGQGLEWIGMIHPSDSETILNQKFKDKATLTVDISTSTAYMELSSPRSEDTAVYYCSSWSAKRGDFWGQGTLVTVSS
# VL: B5 VL
# modifications: Variable region heavy chain humanised variant 1 (VH1); Variable region light chain humanised variant 5 (VL5)
# B8: IP14-H2L5: humanised IP14 antibody: VH SEQ ID NO: 3, VL SEQ ID NO: 14 (antibody, V domains shown)
# VH: B7 VH with H16A, P86L
# VL: B5 VL
# modifications: Variable region heavy chain humanised variant 2 (VH2); Variable region light chain humanised variant 5 (VL5)
# B9: IP14-H3L4: humanised IP14 antibody: VH SEQ ID NO: 4, VL SEQ ID NO: 13 (antibody, V domains shown)
# VH: B7 VH with H16A, I48M, A68V, L70M, V72R, I74T, A79V, P86L, S97A, S98R
# VL: B4 VL
# modifications: Variable region heavy chain humanised variant 3 (VH3); Variable region light chain humanised variant 4 (VL4)
# B10: IP14-H3L8: humanised IP14 antibody: VH SEQ ID NO: 4, VL SEQ ID NO: 17 (antibody, V domains shown)
# VH: B7 VH with H16A, I48M, A68V, L70M, V72R, I74T, A79V, P86L, S97A, S98R
# VL: B1 VL with E1D, N20T, K49Y, I58V, P67S, N72T, G100Q, L104V
# modifications: Variable region heavy chain humanised variant 3 (VH3); Variable region light chain humanised variant 8 (VL8)
# B11: IP14-H3L7: humanised IP14 antibody: VH SEQ ID NO: 4, VL SEQ ID NO: 16 (antibody, V domains shown)
# VH: B7 VH with H16A, I48M, A68V, L70M, V72R, I74T, A79V, P86L, S97A, S98R
# VL: B1 VL with E1D, K49Y, I58V, P67S, G100Q, L104V
# modifications: Variable region heavy chain humanised variant 3 (VH3); Variable region light chain humanised variant 7 (VL7)
# B12: IP14-H3L5: humanised IP14 antibody: VH SEQ ID NO: 4, VL SEQ ID NO: 14 (antibody, V domains shown)
# VH: B7 VH with H16A, I48M, A68V, L70M, V72R, I74T, A79V, P86L, S97A, S98R
# VL: B5 VL
# modifications: Variable region heavy chain humanised variant 3 (VH3); Variable region light chain humanised variant 5 (VL5)
# Molecular target: T1, murine MK (muMK)
# Test: ELISA binding of humanised anti-MK antibodies to muMK
# Conditions: ELISA, plates coated with 2 ug/mL muMK; read-out: Binding affinity for muMK, ELISA EC50
# Protocol: (§1) The binding specificity and affinity of the humanised anti-MK antibodies to recombinant human MK (huMK) and murine MK (muMK) was assessed by ELISA. ELISA plates (Nunc Immuno MaxiSorp 96 well flat-bottom were coated with 100 uL of 2 ug/mL of either huMK or muMK in 2% BSA/PBS (overnight at room temperature). After washing, blocking (1 h at 37° C.), and washing again, the humanised anti-MK and chimeric antibodies described in Example 1 were analysed for binding to huMK or muMK at concentrations ranging between 3 μg/ml and 0.00004 μg/ml in 2% BSA/PBS (1 h at 37° C.). After washing, the binding of antibody was detected with goat anti-mouse IgG (Fab specific)-HRP conjugate (Sigma, Cat. No. A9917) and SigmaFast OPD substrate (Sigma, Cat. No. P9187). The reaction was stopped with 3 M HCl, absorbance read at 490 nm on a Dynex Technologies MRX TC II plate reader and the binding curves plotted. Binding affinity data for the humanised anti-MK antibodies to huMK and muMK are presented in Table 6 and Table 7 respectively, and in FIG. 3.
# (§2) KD values for hIP14-H5L8, hIP14-H6L3 and hIP14-H6L8 was then compared with the KD values obtained for the corresponding murine IP14 precursor antibody and the chimeric antibody using the methods described in Example 2. […] Based on this finding, these candidate antibodies were produced to 100 mg scale to enable further testing in functional assays to determine biological function.
row,EC50 [nM],Molecule
1,> 10,B1
2,> 10,B2
3,> 10,B3
4,> 10,B4
5,> 10,B5
6,> 10,B6
7,> 10,B7
8,> 10,B8

# Molecular target: T2, recombinant human MK (huMK)
# Test: ELISA binding of humanised anti-MK antibodies to huMK
# Conditions: ELISA, plates coated with 2 ug/mL huMK; read-out: Binding affinity for huMK, ELISA EC50
# Protocol: as §1, §2
row,EC50 [nM],Molecule
1,> 10,B1
2,> 10,B2
3,> 10,B3
4,> 10,B9
5,> 10,B10
6,> 10,B11
7,> 10,B4
8,> 10,B5
9,> 10,B12
10,> 10,B6
11,> 10,B7
12,> 10,B8
